In patent publication US20230257452A1 (GTINVENT, published 2023):
Positions count from the first letter of the chain named.

B1: E2B7 scAb (scFv)
scFv: QVQLQESGPSLVKPSQTLSLTCTVSGFSLTSWGVAWVRQAPGKALEWLGTMRSGGGTEYNPALKSRLSITRDTSKSQVSLSLSSVTTEDMAMYYCARGYLSGIHYAWGRGLLVSVSSEGKSSGASGESKVDDQAVLTQLSSVSGSLGQRVSITCSGSSSNVGDGDYVGWFQQLPGSAPKLLIYSARNRASGVPDRFSGSRSGNTATLTITSLQAEDEADYYCASIDTSRSHIFGSGTRLTVLG
notes: not shown: human C kappa domain and hexa-His tag of the scAb format
B2: CA12 scAb (scFv)
scFv: QVQLQGSGPSLVKPSQTLSLTCTVSGFSFDSYYVGWVRQAPGKALEWLGNIYSTGRAFYNPALKSRLSITRDTSKSQVSLSVSSVTIEDTALYYCVRGSYYHGGGNGMVDFFDYWSPGLLVTVSSEGKSSGASGESKVDDQVVRTQPSSVSGSLGQRVSITCSGSSSNVGYGNYVGWFQQVPGSAPKLLIYAATSRASGVPDRFSGSRSGNTATLTIDSLQAEDEADYYCSSYQRGNTGVFGSGTRLTVLG
notes: as for B1
B3: S1G10 scAb (scFv)
scFv: QVQLQESGPSLVKPSQTLSLTCTVSGFSLTSNSVGWVRQAPGKAPEWVAGIDTDGEEGYNPALNSRLSITRDTSKSQVSLSLSSVTSEDTAVYYCGRSYRADGLAYGYVQAIDYWGPGLLVTVSSEGKSSGASGESKVDDQAVLTQPSSMSGSLGQRVSITCSGSFIGISSVGWFQQLPGSGLRTIIVASDGRPSGVPDRFSMSKSGNTATLTISSLQAEDEADYFCGSSDRTQYTGVFGSGTRLTVLG
notes: as for B1
B4: S1B1 scAb (scFv)
scFv: B3 scFv with T30S, G96V, A101T, M150V, I186V, M203N
notes: as for B1
B5: S1E12 scAb (scFv)
scFv: B3 scFv with T30G, Q141R, A142V, L144R, M150V
notes: as for B1
B6: S1F4 scAb (scFv)
scFv: B3 scFv with T30S, G96V, V121L, V123I, L144V, M150V, I186V, M203N
notes: as for B1
B7: S2C6 scAb (scFv)
scFv: QVQLQESGPSLVKPSQTLSLTCTVSGFSLISNSVGWVRQAPGKAPEWVAGIDTDGEEGYNPALKSQYAASDPDTSKSQVSLSLSSVTSEDTAVYYCGRTYRTDGFAYGYVQAIDYWGPGLLLTISSEGKSSGASGESKVDDQAVLTQPSSVSGSLGQRVSITCSGSFIGISSVGWFQQLPGSGLRTIIVASDGRPSGVPDRFSMSKSGNTATLTISSLQAEDEADYFCGSSDRTQYTGVFGSGTRLTVLG
notes: as for B1
B8: CB2 scAb (scFv)
scFv: QVQLQESGPSLVKPSQTLSLTCTVSGFSLSTNSVGWVRQAPGKAPEWVAGIDTDGEEGFNPVLKSRLSITRDTSKSQVSLSLSNVTSEDTAVYYCGRSYRTDGLAYGYVQAIDYWGPGLLVTISSEGKSSGASGESKVDDQSVLTQPSSVSGSPGQTVSITCSGSYIGSSGVGWFQQLPGSGLRTIIVASDGRPSGVPDRFSMSKSGNTATLTISSLQAEDEADYFCGSSDRTQYTGLFGSGTRLTVLG
notes: as for B1
B9: S1D9 scAb (scFv)
scFv: QVQLQESGPSLVKPSQTLSLTCTVSGFSLTSNSVGWVRQAPGKAPEWVAGIDSDGEEGYNPALNSRLSITRDTSKNQVSLSLSRVTSEDTAVYYCGRTYRTDGYAYGYVQAIDYWGPGLLVTVSSEGKSSGASGESKVDDRVMLTQPPSVSGSPGQTVSITCSGSFIGISSVGWFQQLPGSGLRTVIFASDGRPSGVPDRFSNSKSGNTATLTISSLQAEDEADYFCGSSDRTQYTGVFGSGTRLTVLS
notes: as for B1
B10: CE3 scAb (scFv)
scFv: QVRLQESGPSLVKPSQTLSVTCTVSGFSLISNAVGWVRQAPGKVPESLAGCSSDGKCYYNSALKSRLDITRDTSKNQISLSLSSVTTDDAAVYYCTRGYYPVYGYDYLGTIDYWGPGLLVTVSSEGKSSGASGESKVDDQAVLTQPSSVSGSLGQRVSITCSGSSSNVGRNDVAWFQQLPGSGLRTIIYGTTSRPSGIPDRFSGSKSGVTATLTIDSLQAEDEADYFCASGDSSAINDIFGSGTRLTVLG
notes: as for B1
B11: CE2 scAb (scFv)
scFv: QVQLQESGPSLVKPSQTLSLTCTVSGFSLTNYPVGWVRQAPGKALEWIGNIENDGSANYASALKSRLSITRDTSKNQVSLSLSSATTEDTAVYYCGREFGGSDGYTYFVDIDYWGPGLLVTVSSEGKSSGASGESKVDDQAVLTQPSSVSKSLGQSVSITCSGSSSNVGYGNYVSWFQQVPGSAPKILIYGATSRASGVPDRFSGSRSGNTATLTITSLQAEDEADYYCASYDGSSSGVFGSGTRLTVLG
notes: also called CE2/E1B8; not shown: human C kappa domain and hexa-His tag of the scAb format
B12: CA4 scAb (scFv)
scFv: QVQLQESGPSLVKPSQTLSLTCTVSGFSLTSYSVYWVRQAPGQALEWISIMYASGRVDYNPALKSRLSITRDTSKSQFSLSLSSVTTEDTAVYYCTRGIENWGPGLLVTVSSEGKSSGASGESKVDDDIQVTQSPSSLSASLTERVSITCRTSQSVNNYLSWYQQKPGQAPKLLIYYATRLYTDVPSRFSGSGSGTDYTLTITSLEADDTATYYCLQYDSTPLAFGGGTNVEIK
notes: as for B1
B13: E2E8 mAb (antibody, mouse IgG2a, V domains shown)
VH: QVQLQESGPSLVKPSQTLSLTCTVSGFSLTDRGVAWVRQAPGKALEWVGTMRSGGTIDYNPALKSRLSITRDTSKSQVFLSLSSVTTEDMAMYYCARGYLSGDRYAWGRGLLVTVSS
VL: QAVLTQPSSVSKSLGQSVSIACSGSRSDIGYGNYVSWFQQIPGSAPKLLIYDTNTRASGVPDRFSGARSGNTATLTINSLQAEDEADYYCANIDSSRSHLFGSGTRLTVLG
notes: sheep-mouse (IgG2a) chimeric mAb
B14: CB7 scAb (scFv)
scFv: QVQLQESGPSLVKPSQTLSLTCTVSGFSLTNYRVGWVRQAPGKALEWVSNIRSGGTTWYNPALKSRLSITADTSKSQVSLSLSSVTTEDTAVYYCARDSSGDLYAYDYWGPGLLVTVSSEGKSSGASGESKVDDQAVLTQPSSVSRSLGQSVSMTCSGSSSNVGYGNYMAWFQQVPGSAPKLLIYGATSRASGVPDRFSGSRSGNTATLTISSLQAEDEADYYCASYDSTSGGVFGSGTRLTVLG
notes: as for B1
B15: CC7 scAb (scFv)
scFv: QVQLQESGPSLVKPSQTLSLTCTVSGFSLTSNAVIWVRQAPGKAPEWVALIDVDGDAAYDPALKSRLSITRDTSKSQVSLSLRSVTTEDTAVYYCARDYGSWGYVSDIDYWGPGLLVTVSSEGKSSGASGESKVDDRVVRTQPSSVSGSLGQRVSITCSGSYITGSSVGWFQQVPGSGLKTVIYDNNDRPSGVPDRFSGSKSGDTATLTISSLQAEDEADYYCASYDTSNIGLFGSGTRLTVLG
notes: as for B1
B16: 412E10 scAb (scFv)
scFv: QVQLQESGPSLVKPSQTLSLTCTVSGFSVISDSVAWVRQAPGKVPEWLGASGSSGNKYYNPALKSRLSITRDTSKSQVSLSLSSVTTEDTAVYYCARGIIAGVDVWGRGLLVTVSSEGKSSGASGESKVDDQAVLTQPSSVSGSLGQRVSITCSGSSSNVGYGNYVGWYQQVPGSAPKLLIYGTAIRASGVPDRFSGSRSGDTATLTITSLQAEDEADYYCASYQSNYAFFGSGTRLTVLG
notes: as for B1

Columns and labels:
dGAE (tau 297-391) [1] = target: T1, dGAE (tau 297-391) (human, UniProt P10636 614-708); assay: ELISA, antigen coated, scAb titrated
T1 construct: also called dGAE95
T1 sequence (P10636 614-708 limits assumed): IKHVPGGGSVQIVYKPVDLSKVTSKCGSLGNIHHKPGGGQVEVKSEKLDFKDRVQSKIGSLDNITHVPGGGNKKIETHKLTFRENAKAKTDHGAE
From the text: The plates were blocked with 2% MPBS and scAb samples added at desired starting concentrations and double diluted across the plate. Binding was detected using anti-Human C Kappa HRP conjugated secondary antibody and the resulting immunoreaction was developed and absorbance values measured as described above.

dGAE (tau 297-391) [2] = target: T1, dGAE (tau 297-391); assay: tau-tau immunoassay: scAb preincubated with 100 nM dGAE; blocked ligand: plate-bound dGA (1000 nM); bound dGAE detected with E2E8
Experimental: The adapted method is as follows: dGA (1000 nM) was adsorbed to a Nunc 96-well MaxiSorp plate and incubated for 1 h at 37° C. Plates were subsequently washed 3 times with PBST which was performed after each 1 h incubation. The plates were blocked with 2% (w/v) dried milk powder in PBS for 1 h at 37° C. […] The secondary antibody used was HRP-conjugated Anti-mouse IgG (1:1000 dilution, Sigma) and incubated at RT for 1 h. The plate was subsequently developed, and readings taken at absorbance 450 nm.

[3] = target: T2, full length human tau protein (2N4R, isoform Tau-F, 441 amino acids) (human, UniProt P10636 1-758); assay: ELISA, hT40 coated, scAb titrated
T2 construct: also called hT40; htau40
T2 sequence (P10636 other isoform, or with tags, fused parts or gaps limits assumed): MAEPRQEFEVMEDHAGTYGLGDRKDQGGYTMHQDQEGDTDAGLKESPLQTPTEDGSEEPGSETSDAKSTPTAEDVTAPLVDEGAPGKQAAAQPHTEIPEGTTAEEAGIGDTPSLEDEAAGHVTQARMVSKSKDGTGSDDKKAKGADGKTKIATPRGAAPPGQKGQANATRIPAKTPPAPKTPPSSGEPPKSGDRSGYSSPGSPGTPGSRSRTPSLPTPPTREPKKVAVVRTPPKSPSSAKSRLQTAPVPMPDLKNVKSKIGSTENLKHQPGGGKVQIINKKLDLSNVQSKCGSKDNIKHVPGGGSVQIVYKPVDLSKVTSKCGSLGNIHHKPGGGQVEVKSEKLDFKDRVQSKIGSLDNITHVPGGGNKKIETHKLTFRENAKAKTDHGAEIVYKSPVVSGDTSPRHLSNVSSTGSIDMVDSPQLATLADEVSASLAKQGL

[4] = target: T2, full length human tau protein (2N4R, …); assay: sandwich ELISA, S1D12 mAb capture, hT40 titrated, detection scAb, chemiluminescent
Experimental: (§1) Full length tau (hT40), at 1 μg/ml starting concentration was added to designated wells and double diluted across rest of the plates and left to incubate at R/T for 1 h. A series of detection scAbs with varying epitope recognition properties were added at 10 μg/ml to designated wells (FIG. 22). For colourimetric detection HRP conjugated anti-HuCk secondary antibody was used and the resulting immunoreaction was developed and absorbance at 450 nm measured as described previously. Cut-off point for a positive binding event was an absorbance value of 0.3 following background subtraction. In order to enhance the assay sensitivity, a chemiluminescent detection method was adopted where 50 μL SuperSignal ELISA Femto Substrate (Thermo Scientific) was added to each well following incubation with anti-HuCK HRP antibody and subsequent washing. The luminescence was read using Clariostar Plus microplate reader. A further modification to this protocol was done where various detection scAbs were directly conjugated with HRP and detected using chemiluminescent protocol as before.

[5] = target: T2, full length human tau protein (2N4R, …); assay: sandwich ELISA, S1D12 mAb capture, hT40 titrated, detection scAb at 10 ug/ml, colourimetric
Experimental: as §1

dGAE aggregates = target: T3, dGAE aggregates (human, UniProt P10636 614-708, limits assumed); assay: capture ELISA, mAb coated at 1 ug/ml, dGAE aggregates titrated, S1G2 scAb detection
T3 construct: 100 µM dGAE aggregated with DTT at 37 °C, 700 rpm, 24 h; also called aggregated dGAE
T3 sequence (P10636 614-708 limits assumed): as the sequence (P10636 614-708 limits assumed) above

| Binder | B50 (dGAE (tau 297-391) [2]) [nM] | LoD (ng/ml) chemiluminescence detection [4] [ng/mL] | LoD (ng/ml) colourimetric detection [5] [ng/mL] | further results |
| --- | --- | --- | --- | --- |
| B1 |  |  |  | binding result (dGAE (tau 297-391) [1]): binds |
| B2 | 59 |  |  | EC50 (read off the curve) [3]: ~0.02 µg/mL |
| B3 | 207 | 0.12 | 2 |  |
| B4 | 101 |  |  |  |
| B5 | 92 |  |  |  |
| B6 |  |  |  | EC50 (read off the curve) [3]: ~0.05 µg/mL |
| B7 | 51 |  |  |  |
| B8 | 93 |  |  |  |
| B9 | 107 |  |  |  |
| B10 | 209 |  |  |  |
| B11 | 211 |  |  |  |
| B12 | 221 | 0.37 | 6 |  |
| B13 |  |  |  | binding result (dGAE aggregates): binds |
| B14 |  | 3.33 | 15 |  |
| B15 |  | 3.33 | 6 |  |
| B16 |  | 0.37 | 20 |  |
